# Assay results taken from US20160340421A1.
# Key:
# [1] = molecular target: GDF8/TGFβ[48-72] chimera (T48): GDF8.1-47.TGFβ1.49-76.GDF8.73-109 (human GDF8 with human TGFβ-1 sequence); experiment: cell-based or functional assay
# Target sequence (chain, as listed by the source mutant limits assumed): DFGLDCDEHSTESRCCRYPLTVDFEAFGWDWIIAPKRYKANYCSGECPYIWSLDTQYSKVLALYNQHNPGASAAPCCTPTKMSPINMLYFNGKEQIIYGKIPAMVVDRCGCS
# [2] = molecular target: Human GDF8 homodimer (mature human Growth and Differentiation Factor-8) (human) (UniProt O14793); experiment: cell-based or functional assay
# hGDF11 homodimer (human) [3] = molecular target: hGDF11 homodimer (human) (UniProt O95390); experiment: cell-based or functional assay
# [4] = molecular target: Human GDF8 homodimer (mature human Growth and Differentiation Factor-8) (human) (UniProt O14793); experiment: SPR, antibody captured, 25 nM antigen
# hGDF11 homodimer (human) [5] = molecular target: hGDF11 homodimer (human) (UniProt O95390); experiment: SPR, antibody captured, 25 nM antigen
# [6] = molecular target: Human GDF8 homodimer (mature human Growth and Differentiation Factor-8) (human) (UniProt O14793); experiment: SPR, antibody captured, buffer without BSA
# hGDF11 homodimer (human) [7] = molecular target: hGDF11 homodimer (human) (UniProt O95390); experiment: SPR, antibody captured, buffer without BSA
# [8] = molecular target: Human GDF8 homodimer (mature human Growth and Differentiation Factor-8) (human) (UniProt O14793); experiment: SPR Biacore T100, captured on anti-hFc, 25°C
# hGDF11 homodimer (human) [9] = molecular target: hGDF11 homodimer (human) (UniProt O95390); experiment: SPR Biacore T100, captured on anti-hFc, 25°C
# [10] = molecular target: Human GDF8 homodimer (mature human Growth and Differentiation Factor-8) (human) (UniProt O14793); experiment: SPR Biacore T100, captured on anti-hFc, 37°C
# hGDF11 homodimer (human) [11] = molecular target: hGDF11 homodimer (human) (UniProt O95390); experiment: SPR Biacore T100, captured on anti-hFc, 37°C
# [12] = molecular target: Human GDF8 homodimer (mature human Growth and Differentiation Factor-8) (human) (UniProt O14793); experiment: Luminex: hGDF8 beads with 1.25 µg/ml antibody, then Activin RIIB-mFc; MFI of bound Activin RIIB-mFc (n=3)
# Chain of Human GDF8 homodimer (mature human Growth and Differentiation Factor-8) (human) (O14793 267-375): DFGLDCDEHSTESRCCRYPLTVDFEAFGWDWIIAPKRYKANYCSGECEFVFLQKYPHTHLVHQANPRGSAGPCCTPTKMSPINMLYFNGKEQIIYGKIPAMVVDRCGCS
# Chain of hGDF11 homodimer (human) (O95390 299-407 limits assumed): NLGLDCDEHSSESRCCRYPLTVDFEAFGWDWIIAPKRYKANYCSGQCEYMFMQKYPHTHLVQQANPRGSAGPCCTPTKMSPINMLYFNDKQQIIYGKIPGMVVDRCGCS
substance,measurement,setting,value
Control I: human anti-GDF8 antibody with the heavy and light chain variable regions of Myo29,"approximate IC50, luciferase bioassay with GDF8/TGFβ[48-72] conditioned medium",[1],0.402 nM
same,"IC50, GDF8-inducible luciferase, A204/Smad2 cells, 0.8 nM GDF8",[2],0.62 nM
same,"IC50, luciferase bioassay, 0.5 nM GDF8",[2],0.172 nM
same,"IC50, luciferase bioassay, 1 nM GDF8",[2],0.398 nM
same,"IC50, GDF11-inducible luciferase, A204/Smad2 cells, 0.8 nM GDF11",hGDF11 homodimer (human) [3],0.94 nM
same,"IC50, luciferase bioassay, 0.4 nM GDF11",hGDF11 homodimer (human) [3],0.255 nM
same,"IC50, luciferase bioassay, 0.8 nM GDF11",hGDF11 homodimer (human) [3],0.459 nM
same,Kd,[4],0.05 nM
same,T1/2,[4],191 min
same,Kd,hGDF11 homodimer (human) [5],0.08 nM
same,T1/2,hGDF11 homodimer (human) [5],136 min
same,Kd,[6],2 pM
same,T1/2,[6],1300 min
same,Kd,hGDF11 homodimer (human) [7],1 pM
same,T1/2,hGDF11 homodimer (human) [7],105 min
same,Kd,[8],0.0103 nM
same,T1/2,[8],273 min
same,Kd,hGDF11 homodimer (human) [9],0.0146 nM
same,T1/2,hGDF11 homodimer (human) [9],221 min
same,Kd,[10],0.0244 nM
same,T1/2,[10],70 min
same,Kd,hGDF11 homodimer (human) [11],0.0274 nM
same,T1/2,hGDF11 homodimer (human) [11],56 min
same,MFI,[12],58
Negative Control (Table 11),MFI,[12],4560
